Experimental findings from publication PMC4086636 are described below.

The assay addresses domain 4 of the anthrax protective antigen (Bacillus anthracis) (UniProt P13423). Kind of assay: cross-linking.

With M18 scFv with L-DOPA at position H_D54, the Experimental Crosslinking (%) amounted to 30.4%.

Consider M18 scFv with L-DOPA at position H_D56, for which the Experimental Crosslinking (%) worked out at 36.2%. The result for M18 scFv with L-DOPA at position H_G53 reads 40.3%; that for M18 scFv with L-DOPA at position H_G55, 5.1%; that for M18 scFv with L-DOPA at position H_N58, 24.4%. M18 scFv with L-DOPA at position H_S31 gave an Experimental Crosslinking (%) of 51.9%. M18 scFv with L-DOPA at position H_W33 registered an Experimental Crosslinking (%) of 13.9%.

The substance M18 scFv with L-DOPA at position H_Y52 showed an Experimental Crosslinking (%) of 19.7%.
